The supplement of paper PMC10567573
± gives the standard deviation.

Assay: protein stability index of a GFP-peptide fusion (GPS, HEK-293T) (PSI 1-6); higher = more stable
[1] = treatment: DMSO, c terminus: a fixed tail appended
[2] = treatment: MLN4924 1 uM, 8 h, c terminus: a fixed tail appended
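Further: 24-mer peptide tiles fused after GFP, lentivirally expressed, FACS-sorted into six equal bins by GFP/DsRed ratio, decoded by Illumina sequencing, PSI is the read-weighted mean bin number.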

| Sequence | protein stability index [1] | protein stability index [2] | protein stability index (treatment: DMSO, c terminus: native) | protein stability index (treatment: MLN4924 1 uM, 8 h, c terminus: native) |
| --- | --- | --- | --- | --- |
| GRRYEAVKWMVVFAIGVCTGLVGL [CLCN6] | 3.33 ± 0.1 | 3.2 ± 0.092 |  |  |
| DFIDCVREKGGKVLVHCEAGISRS [DUSP5] | 2.77 ± 0.2 | 2.79 ± 0.41 |  |  |
| ISVTAYQNPQITQLKIAANPFAKG [TBX6] | 2.33 ± 0.22 | 2.36 ± 0.16 |  |  |
| WQQQSYLDSGIHSGATTTAPSLSG [CTNNB1] | 3.71 ± 0.1 | 3.78 ± 0.33 |  |  |
| ASAAARLGCNRQSWCLKRYDLEYW [TRIM14] | 2.29 ± 0.7 | 1.86 ± 0.27 |  |  |
| LAMNYLDRFLAGVPTPKSHLQLLG [CCND2] | 2.94 ± 0.61 | 2.65 ± 0.76 |  |  |
| MKEPITKAEILESVIKNYEDHFPL [MAGEA10] | 3.98 ± 0.31 | 3.93 ± 0.38 |  |  |
| AIPYLEHIIHVWEETGSRFHNCLI [VPS39] | 2.31 ± 0.4 | 2.36 ± 0.54 |  |  |
| ANETYENNFDNLDFDLDLVPWESD [ATF6] | 5.07 ± 0.24 | 4.82 ± 0.23 |  |  |
| HRWPSNMYLKQLAEYRKYIHSRKC [RHOBTB3] | 2.75 ± 0.37 | 3.19 ± 0.27 |  |  |
| LLEPEEGGRAYQALHCPTGTEYTC [TRIB3] | 3.8 ± 0.31 | 4.1 ± 0.23 |  |  |
| ALDKQHSRDSAAITHSTYSLPASS [NOL4L] | 4.57 ± 0.065 | 4.5 ± 0.065 |  |  |
| TVANDVMLRTGLGVIRMWADEGSR [NETO1] | 2.61 ± 0.11 | 2.77 ± 0.21 |  |  |
| LRQHGPPNIVVAIAGNKCDLIDVR [RAB22A] | 2.46 ± 0.39 | 2.4 ± 0.52 |  |  |
| IFSVTALDPDSKENAQIIYSLAED [PCDHGA10] | 3.1 ± 0.47 | 3.21 ± 0.19 |  |  |
| PNYLANPAFPFIYTPTAEDSAQMQ [ANKRD40] | 3.85 ± 0.28 | 4.08 ± 0.26 |  |  |
| QEELPALLKALVSELSEHLRDPLT [FCHSD1] | 2.13 ± 0.31 | 2.25 ± 0.071 |  |  |
| RERNMAPDLRQDFNMMEQKKRVSM [ADD1] | 4.53 ± 0.11 | 4.5 ± 0.092 |  |  |
| DVPNRLVDNIDMIDGDGDDMERFM [BEX5] | 4.98 ± 0.18 | 5.06 ± 0.21 |  |  |
| YYSVETVTLLVALKVRYRERITIL [PPP2CA] | 2.63 ± 0.69 | 2.56 ± 0.58 |  |  |
| EFFLEQTKKKGVKRPARLHTKPSQ [NOP53] | 3.66 ± 0.55 | 3.68 ± 0.5 |  |  |
| EDLEATSEHFKTTSQKVARKFWWK [VAMP8] | 4 ± 0.18 | 3.82 ± 0.25 |  |  |
| TLSDWAAAVESVLHLGLPWRMLRP [PPEF2] | 3.1 ± 0.84 | 2.48 ± 0.37 |  |  |

| Sequence | protein stability index [1] | protein stability index [2] | protein stability index (treatment: DMSO, c terminus: native) | protein stability index (treatment: MLN4924 1 uM, 8 h, c terminus: native) |
| --- | --- | --- | --- | --- |
| YARTPTLDPDTMHARLRLSADRLT [TRIM14] | 2.91 ± 0.17 | 3.27 ± 0.33 |  |  |
| SGADFHKKDKCGRTPLHYAAANCH [ANKRD44] | 3.42 ± 0.44 | 3.32 ± 0.27 |  |  |
| CMWSKKCSGVACLVKDNPQRSYFL [WASL] | 2.26 ± 0.29 | 2.04 ± 0.27 |  |  |
| GVKISEQQAEKILKSMDKNGTMTI [SLC25A25] | 3.73 ± 0.13 | 3.7 ± 0.22 |  |  |
| FSLKTFKRKSEVERAVKRMRHLST [MATN2] | 2.54 ± 0.51 | 2.82 ± 0.46 |  |  |
| PAYVGPEILSSRASYSGKAADVWS [TRIB3] | 3.09 ± 0.2 | 3.18 ± 0.19 |  |  |
| GSVALGPVCPTVCPPGGIHQVTVN [KRT71] | 3.55 ± 0.34 | 3.52 ± 0.28 |  |  |
| EIETWVREHCPENRERVVSLIEDL [ZNF449] | 3.9 ± 0.2 | 4.01 ± 0.29 |  |  |
| PDVVVRSFMTWLRSYIKLFQAPCQ [MED27] | 2.06 ± 0.19 | 2.12 ± 0.28 |  |  |
| NLQDTLEAASFLQILPVLDFCKVF [KLHL13] | 2.73 ± 0.35 | 2.63 ± 0.52 |  |  |
| SQHRRIHSGEKPFICKECGKAYGW [ZNF232] | 2.67 ± 0.27 | 2.97 ± 0.64 |  |  |
| SVLDDLLYAVGGHDGSSYLNSVER [KLHL20] | 2.71 ± 0.46 | 3.03 ± 0.56 |  |  |
| QCANKVLQHMKAVQADQERERQRR [LRRC59] | 3.93 ± 0.4 | 4.17 ± 0.18 |  |  |
| VDPANDTFDIDPMVVTDCIQVDPP [MCOLN1] | 5.09 ± 0.38 | 5.22 ± 0.28 |  |  |
| KPDDEVKETAHDLDVKSPPEPRSE [RIPK4] | 5.63 ± 0.34 | 5.61 ± 0.37 |  |  |
| MAVRPSLPESGLLSVLQIAQQDLA [FANCE] | 3.29 ± 0.28 | 3.53 ± 0.35 |  |  |
| NDTNSFTVDCEPSDLFRLQEYNIP [CDS2] | 3.65 ± 0.16 | 3.74 ± 0.21 |  |  |
| LFQVVINPNFEVAESDYSNNIMKC [LOXL2] | 2.09 ± 0.28 | 2.5 ± 0.27 |  |  |
| RELLMNHRRGLGVDSKPELQRVLE [FAM107A] | 3.95 ± 0.18 | 4.09 ± 0.14 |  |  |
| LLLERAAAGSPRSPGPLPGARGLH [ISL2] | 2.8 ± 0.15 | 2.97 ± 0.049 |  |  |
| ISLMYGGSKRKSSFFSSPPYFED [SLA] |  |  | 2.22 ± 0.22 | 2.27 ± 0.27 |
| GPPGSPGRAGAVGTPGERGPPGPP [EMID1] | 5.32 ± 0.84 | 4.81 ± 0.84 |  |  |
| GFWRIDPQYAERLLSGAFKKRRLP [FOXJ1] | 2.56 ± 0.12 | 2.4 ± 0.37 |  |  |

| Sequence | protein stability index [1] | protein stability index [2] | protein stability index (treatment: DMSO, c terminus: native) | protein stability index (treatment: MLN4924 1 uM, 8 h, c terminus: native) |
| --- | --- | --- | --- | --- |
| VGVATADAPLHSVGYTTLVGNNHE [SPSB1] | 4.25 ± 0.45 | 4.16 ± 0.19 |  |  |
| GPGIVGNVLVDPSARIGQNCSIGP [GMPPB] | 3.74 ± 0.32 | 3.81 ± 0.21 |  |  |
| VCMDLRANLKQVKKEDTEKERDLR [TNNI2] | 4.71 ± 0.18 | 4.77 ± 0.4 |  |  |
| SFTTNEKAILEQNFRDLVRDLEKQ [TRIM29] | 3.97 ± 0.19 | 4.19 ± 0.2 |  |  |
| DENEDVNFDHFEILRAIGKGSFGK [STK32A] | 4.22 ± 0.18 | 4.14 ± 0.17 |  |  |
| GRRCKKCTEGPIDLVFVIDGSKSL [MATN2] | 2.06 ± 0.35 | 2.41 ± 0.44 |  |  |
| GHEEWVGSAYLFVESSLDKVVLSD [TRADD] | 2.41 ± 0.45 | 2.45 ± 0.55 |  |  |
| QPPPPRRVTNVGSLLLTPQENESL [WASL] | 4.73 ± 0.083 | 4.66 ± 0.27 |  |  |
| SSDVSTAGTGASRSSHSSDSGGSD [ELF3] | 5.44 ± 0.32 | 5.565 ± 0.049 |  |  |
| ALTRLERHLERKAWVANFERPRMN [CRY1] | 2.42 ± 0.048 | 2.66 ± 0.6 |  |  |
| RGEALGLVGAQAPATEEQEAASSS [MAGEA3] | 5.61 ± 0.27 | 5.62 ± 0.1 |  |  |
| FEKSRYETYIHLLAMKIKVGSDDL [PSD2] | 2.53 ± 1 | 2.55 ± 0.61 |  |  |
| TLALILQIPTQNTQARQVMEREFN [PPFIA4] | 2.32 ± 0.34 | 2.39 ± 0.26 |  |  |
| GFSLEDPQTHSNRIYRMIKLGLGI [HSP90AB1] | 2.06 ± 0.42 | 2.29 ± 0.3 |  |  |
| CRREAFRRLGNGVSDDLSSEEDGE [PHTF1] | 4.94 ± 0.19 | 4.77 ± 0.13 |  |  |
| HGAHKHHPIEEAAEEHREKLLKQM [TRIM43] | 5.17 ± 0.24 | 5.14 ± 0.14 |  |  |
| EVSQHIKMRMGGRVDFEEFVELIG [CABP4] | 2.44 ± 0.12 | 3 ± 0.44 |  |  |
| EAAGVVVEEELFHQQGTPRASNRS [LMNB1] | 5.31 ± 0.41 | 5.47 ± 0.14 |  |  |
| QEHQSALEEAKQPKNDNVVIPECA [SMOC2] | 5.51 ± 0.23 | 5.46 ± 0.27 |  |  |
| EVRSKAEEVVSFVKKNVLVTGGFF [FUNDC2] | 2.17 ± 0.37 | 2.25 ± 0.34 |  |  |
| SDLFRLQEYNIPGVIQSVIGWKTV [CDS2] | 2.28 ± 0.26 | 2.1 ± 0.28 |  |  |
| GGTSSNNSEEEEDDDDEEEEVSEV [ANKRD17] | 5.5 ± 0.23 | 5.54 ± 0.16 |  |  |
| EIRMWQTREKAKFSDGEKCRREAF [PHTF1] | 2.98 ± 0.14 | 3.1 ± 0.31 |  |  |

| Sequence | protein stability index [1] | protein stability index [2] | protein stability index (treatment: DMSO, c terminus: native) | protein stability index (treatment: MLN4924 1 uM, 8 h, c terminus: native) |
| --- | --- | --- | --- | --- |
| LDDRKNEEDGGADEHEHPLTSELD [MIA2] | 5.76 ± 0.12 | 5.26 ± 0.38 |  |  |
| EVKIEEPVSMEMDNHMSDKDESCY [INTS3] | 5.31 ± 0.37 | 5.37 ± 0.19 |  |  |
| PVSMEMDNHMSDKDESCYDNAEAA [INTS3] | 5.53 ± 0.36 | 5.53 ± 0.23 |  |  |
| QTMLSHYRPFYVNKGNGIGSNEAP [TRIM29] | 2.97 ± 0.27 | 3.17 ± 0.2 |  |  |
| QYQTVRYDILPLSPVSRNRLAQVK [CTDNEP1] | 3.02 ± 0.19 | 3.04 ± 0.29 |  |  |
| AGILSNLTCNNYKNKMMVCQVGGI [CTNNB1] | 2.17 ± 0.3 | 2.11 ± 0.37 |  |  |
| SHFSRLSEEKLALDNNASASGNAT [C10orf62] | 5.03 ± 0.14 | 5.13 ± 0.26 |  |  |
| NRTLWRLDLAGNNIPGDVLRAVEQ [LRRC45] | 3.01 ± 0.6 | 3.51 ± 0.43 |  |  |
| LKKSNSAPSKKAAKDPGKGELPNH [FBF1] | 5.14 ± 0.1 | 5.08 ± 0.11 |  |  |
| QTYQPPWKALSEFALQSDLDQPAF [ISL2] | 2.96 ± 0.28 | 3.04 ± 0.21 |  |  |
| LVFLELAQFHCAYQLADWCLHHIC [RHOBTB2] | 3.16 ± 0.17 | 2.98 ± 0.43 |  |  |
| EILTLLQGVHQGAGFQDIPKRCLK [TSN] | 2.08 ± 0.3 | 2.41 ± 0.49 |  |  |
| RVQAALVWERPARSALWCLGLNAA [RETREG3] | 2.1 ± 0.71 | 2.38 ± 0.14 |  |  |
| DVAISANIADIEEKRGFTSHFVFV [NCF4] | 2.23 ± 0.6 | 2.55 ± 0.47 |  |  |
| TVGDLGIVRRRSRDVPESPQHAAD [YJU2B] | 5.08 ± 0.25 | 5.3 ± 0.17 |  |  |
| YSLAEDTIQGVPLSSYISINSDTG [PCDHGA10] | 3.53 ± 0.2 | 3.47 ± 0.28 |  |  |
| ELKTFRLKTRSWAGERSRRELCSR [CDC25B] | 3.07 ± 0.099 | 3.44 ± 0.56 |  |  |
| KASNPDLKLWEIGKIIGGMWRDLT [SMARCE1] | 3.42 ± 1.9 | 2.55 ± 0.64 |  |  |
| QPKEPQLTCDSAQKCHSIGETDEV [ZSCAN9] | 5.43 ± 0.22 | 5.57 ± 0.21 |  |  |
| LEETKGRYCMQLSQIQGLIGSVEE [KRT16] | 3.91 ± 0.17 | 3.91 ± 0.2 |  |  |
